What is called EC50 is the concentration needed to bring the measured effect to its halfway point.

Eight molecules from patent publication US20260234247A1 (published 2026) can be followed below.

Residue numbers refer to the chain shown, from its start.

The target of test [1] is T1, human LILRB1 on CHOK1 cells (human, UniProt Q8NHL6 24-650).
T1 construct: whole, on cells; also called CHOK1-hLILRB1; CHOK1-LILRB1
Nature of the test: FACS binding, CHOK1-hLILRB1 cells. (In general: A flow cytometer gives signals particle by particle.)

The target of test [2] is T2, human LILRB2 on CHOK1 cells (human, UniProt Q8N423 22-597).
T2 construct: whole, on cells; also called CHOK1-hLILRB2; CHOK1-LILRB2
Nature of the test: FACS binding, CHOK1-hLILRB2 cells.

T2 sequence (Q8N423 22-597): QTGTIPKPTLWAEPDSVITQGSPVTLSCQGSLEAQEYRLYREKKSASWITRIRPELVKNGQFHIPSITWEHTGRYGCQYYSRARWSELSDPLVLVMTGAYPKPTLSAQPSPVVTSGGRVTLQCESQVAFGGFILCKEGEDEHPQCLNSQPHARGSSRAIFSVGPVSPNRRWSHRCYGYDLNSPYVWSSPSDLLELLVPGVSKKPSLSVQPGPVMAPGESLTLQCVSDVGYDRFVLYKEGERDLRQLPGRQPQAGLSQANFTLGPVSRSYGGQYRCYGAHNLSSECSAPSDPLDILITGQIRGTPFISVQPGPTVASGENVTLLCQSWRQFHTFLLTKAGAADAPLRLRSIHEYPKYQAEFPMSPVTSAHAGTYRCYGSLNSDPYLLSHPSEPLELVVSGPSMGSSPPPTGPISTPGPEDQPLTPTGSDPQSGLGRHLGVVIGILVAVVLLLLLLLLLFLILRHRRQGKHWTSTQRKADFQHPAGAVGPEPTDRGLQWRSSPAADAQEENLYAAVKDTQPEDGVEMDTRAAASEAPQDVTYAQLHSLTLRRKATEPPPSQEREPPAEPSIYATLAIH
T1 sequence (Q8NHL6 24-650): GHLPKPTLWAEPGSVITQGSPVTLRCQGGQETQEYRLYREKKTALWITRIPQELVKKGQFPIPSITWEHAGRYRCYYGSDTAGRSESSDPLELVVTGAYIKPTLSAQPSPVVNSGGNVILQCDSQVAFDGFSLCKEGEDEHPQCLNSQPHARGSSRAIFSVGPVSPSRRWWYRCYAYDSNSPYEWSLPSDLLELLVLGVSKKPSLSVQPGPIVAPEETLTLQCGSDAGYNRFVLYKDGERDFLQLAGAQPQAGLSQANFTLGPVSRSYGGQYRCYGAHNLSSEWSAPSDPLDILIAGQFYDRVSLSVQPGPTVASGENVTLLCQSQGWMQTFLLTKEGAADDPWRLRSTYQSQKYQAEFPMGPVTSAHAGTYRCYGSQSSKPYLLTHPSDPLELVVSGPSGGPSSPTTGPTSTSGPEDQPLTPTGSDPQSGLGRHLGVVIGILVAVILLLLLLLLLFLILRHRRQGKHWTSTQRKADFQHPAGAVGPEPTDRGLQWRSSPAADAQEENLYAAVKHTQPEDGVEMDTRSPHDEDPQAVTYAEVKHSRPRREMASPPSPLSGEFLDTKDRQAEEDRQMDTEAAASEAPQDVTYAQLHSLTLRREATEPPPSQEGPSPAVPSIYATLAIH

B1: LK-RB1-17 (antibody, human IgG4 S228P, kappa, V domains shown)
VH: QVQLQQPGAELVKPGASVKLSCEASGYTFTNYWIHWVKQRPGRGLEWIGRIAPNSGGTKYNEKFKTRATLTVDKASTTAYMQLSSLTSEDSAVYYCARLDGSPYYFDYWGQGTTLTVSS
VL: DIVMTQSQKFMSTSIGDRVSVTCKASQNVDTNVAWYQQKPGQSPKALIYSASYRYSGIPDRFTGSGSGTDFTLTISNVQSEDLAEYFCQQYNSYPYTFGGGTKLEIKR
On to B1, for which the EC50 in test [1] was found to be 5.53 nM; in test [2], 47.4 nM.

B2: LK-RB1-28 (antibody, human IgG4 S228P, kappa, V domains shown)
VH: QVQLQQSGPELVKPGTSVKMSCKASGYTFTSHYIHWMKQRPGQGLDWIGWIYPGDGHTKYHEKFKGKATLTADTSSITAYMQLSLLTSEDSAVYYCVYYSDSWFPYWGQGTLVTVSA
VL: DIQMTQSPASLSVSVGETVTITCRASENIYSNLAWYQQKQGKSPQLLVYAATNLADGVPSRFSGSGSGTQYSLKINSLQSEDFGNYFCQHFWGSPWTFGGGTKLEIKR
Take B2: the EC50 in test [1] amounted to 1.33 nM; in test [2] it was 5.72 nM.

B3: LK-RB1-43 (antibody, human IgG4 S228P, kappa, V domains shown)
VH: EFQLQQSGPELMKPGASVKISCKASGYSFTDYNMNWVKQSNGKSLEWIGIIDPNYGTTTYNQKFKGRATLTVDQSSNTAYMQLNSLTSEDSAVYYCAREGRYSWFAYWGQGTLVTVSA
VL: B2 VL with A9G, S10A, Y30N, N85S, F87H, S94T, W96F, G100S
For the molecule B3, the binding result in test [2] was “no binding”.

B4: LK-RB1-32 (antibody, human IgG4 S228P, kappa, V domains shown)
VH: QVQLQQSGAELAKPGASVKLSCTASGYTFTTYLMHWVKQRPAQGLEWIGYINPSNDFTKYNQKFKDKATLTADTSSSTAYMQLNSLTFEDSAVYYCARNSDYDPSYWGQGTTLTVSS
VL: DIQMTQSPASLSVSVGETVTITCRASENIYSSLAWYQQKQGKSPQLLVYAATNLADGVPSRFSGSGSGTQYSLKINSLQSEDFGNYYCQHFWGTWAFGGGTKLEIKR
In test [1], B4 yielded an EC50 of 2.44 nM. The binding result in test [2] is given as “no binding”.

B5: LK-RB1-54 (antibody, human IgG4 S228P, kappa, V domains shown)
VH: DVQLQESGPGLVKPSQSLSLTCSVTGYSITSGFYWNWIRQFPGNKLEWMGHISYDGTNNYNPSLKNRISITRDTSKNLFFLKLNSVTTEDTATFHCARGGYGGSYGFDYWGQGTTLTVSS
VL: ENVLTQSPAIMSASLGEKVTMSCRASSSVNYMYWYQQKSDASPKLWIYYTSNLAPGVPVRFSGSGSGNSYSLTISSMEGEDAATYYCQQFTSSPWTFGGGTKLEIKR
Take B5: in test [2], the binding result is “no binding”.

B6: LK-RB1-35 (antibody, human IgG4 S228P, kappa, V domains shown)
VH: DVQLQESGPGLEKPSQSLSLTCSVTGYSITRGYQWNWIRQFPGNKLEWMGYISYDGSNNYNPSLKNRISITRDASKNQFFLKLNSVTTEDTATYYCARRSYNSIDYWGQGTTLTVSS
VL: DIVLTQSPATLSVTPGDSVSLSCRASQSISSNLHWYQQKSHESPRLLIKYASQSISGIPSRFSGSGSGTDFTLSINSVETEDFGMYFCQQSNSWPLTFGAGTKLELKR
In test [1], B6 came in with an EC50 of 0.44 nM. The binding result in test [2] was “no binding”.

B7: LK-RB1-36 (antibody, human IgG4 S228P, kappa, V domains shown)
VH: B6 VH with T71I, A74T
VL: B6 VL with S31N
The molecule B7 yielded an EC50 in test [1] of 0.46 nM. In addition, the binding result in test [2] is “no binding”.

B8: LK-RB1-31 (antibody, human IgG4 S228P, kappa, V domains shown)
VH: QVQLKESGPGLVAPSQSLSITCTVSGFSLTSYGVSWVRQPPGKGLEWLGIIWGDGSTNYHSALKSRLSISKDNSKSQVFLKLNSLQTEDTATYYCAKPNWDYYAMDYWGQGTSVTVSS
VL: DIQMTQTTSSLSASLGDRVTISCRASQDISNYLNWYLQKPDGTVKLLIYYTSRLHSGVPSRFSGSGSGTDYSLTISNLEQEDIATYFCQQGITLPCTFGGGTKLEIKR
B8 had an EC50 in test [1] of 2.91 nM. For the same molecule, the binding result in test [2] is given as “no binding”.
